How the values were obtained:
NRF1 DD-DBD [1] = molecular target: T1, NRF1 DD-DBD (human, UniProt Q16656 54-284); assay: ITC; mean of listed repeats 0.34 and 0.25; ITC: 20 mM Hepes pH 7.0, 150 mM NaCl, 25 C; protein 20-30 uM, dsDNA 500-600 uM; conditions: protein: recombinant; tags: N-terminal His6 removed by TEV (pET28-MHL); chain copies: 2; blunt; self-complementary
T1 sequence: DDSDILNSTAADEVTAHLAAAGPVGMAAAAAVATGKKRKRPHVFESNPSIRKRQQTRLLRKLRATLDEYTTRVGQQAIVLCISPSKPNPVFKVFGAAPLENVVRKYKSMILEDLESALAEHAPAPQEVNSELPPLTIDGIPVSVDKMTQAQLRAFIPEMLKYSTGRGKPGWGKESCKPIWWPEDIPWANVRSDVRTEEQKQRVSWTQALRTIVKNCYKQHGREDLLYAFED

NRF1 DBD [2] = molecular target: T2, NRF1 DBD (human, UniProt Q16656 177-284); assay: crystal structure; ITC: 20 mM Hepes pH 7.0, 150 mM NaCl, 25 C; protein 20-30 uM, dsDNA 500-600 uM; conditions: protein: recombinant; tags: N-terminal His6 removed by TEV (pET28-MHL); chain copies: 2; blunt; self-complementary
T2 sequence: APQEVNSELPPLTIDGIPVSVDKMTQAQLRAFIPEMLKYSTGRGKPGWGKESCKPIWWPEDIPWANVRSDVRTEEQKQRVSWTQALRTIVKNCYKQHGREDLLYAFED

NRF1 DD-DBD [3] = molecular target: T1, NRF1 DD-DBD; assay: ITC; ITC: 20 mM Hepes pH 7.0, 150 mM NaCl, 25 C; protein 20-30 uM, dsDNA 500-600 uM; conditions: protein: recombinant, tags: N-terminal His6 removed by TEV (pET28-MHL), chain copies: 2, blunt
[4] = molecular target: the molecule itself; assay: SEC-MALS; HPLC-MALS, WTC-015S5 column, 50 mM PBS and 150 mM NaCl, 0.5 mL/min; oligomeric state of NRF1 fragments without DNA
NRF1 DD = molecular target: T3, NRF1 DD (human, UniProt Q16656 54-177); assay: ITC; repeats 1.86, 1.78, 1.96; ITC: 20 mM Hepes pH 7.0, 150 mM NaCl, 25 C; protein 20-30 uM, dsDNA 500-600 uM; conditions: protein: recombinant; tags: N-terminal His6 removed by TEV (pET28-MHL); chain copies: 2; blunt; self-complementary
T3 sequence: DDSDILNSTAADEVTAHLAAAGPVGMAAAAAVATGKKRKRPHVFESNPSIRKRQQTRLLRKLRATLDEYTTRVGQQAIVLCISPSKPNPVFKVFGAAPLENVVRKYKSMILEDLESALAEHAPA

NRF1 DBD [5] = molecular target: T2, NRF1 DBD; assay: ITC; ITC: 20 mM Hepes pH 7.0, 150 mM NaCl, 25 C; protein 20-30 uM, dsDNA 500-600 uM; conditions: protein: recombinant; tags: N-terminal His6 removed by TEV (pET28-MHL); chain copies: 2; blunt; self-complementary
NRF1 N242A = molecular target: T4, NRF1 N242A (human, UniProt Q16656 54-284, N242A); assay: ITC; mean of repeats 1.40, 1.89, 1.89; ITC: 20 mM Hepes pH 7.0, 150 mM NaCl, 25 C; protein 20-30 uM, dsDNA 500-600 uM; conditions: protein: recombinant; tags: N-terminal His6 removed by TEV; chain copies: 2; blunt; self-complementary
T4 sequence: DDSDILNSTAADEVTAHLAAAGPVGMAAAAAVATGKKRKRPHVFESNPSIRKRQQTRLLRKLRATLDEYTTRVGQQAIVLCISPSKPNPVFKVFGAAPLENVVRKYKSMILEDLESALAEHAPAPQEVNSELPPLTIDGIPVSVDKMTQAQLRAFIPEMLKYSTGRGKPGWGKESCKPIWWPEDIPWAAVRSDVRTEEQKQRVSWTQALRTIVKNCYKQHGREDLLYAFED

NRF1 R206A = molecular target: T5, NRF1 R206A (human, UniProt Q16656 54-284, R206A); assay: ITC; mean of repeats 5.60, 5.60, 4.40; ITC: 20 mM Hepes pH 7.0, 150 mM NaCl, 25 C; protein 20-30 uM, dsDNA 500-600 uM; conditions: protein: recombinant; tags: N-terminal His6 removed by TEV; chain copies: 2; blunt; self-complementary
T5 sequence: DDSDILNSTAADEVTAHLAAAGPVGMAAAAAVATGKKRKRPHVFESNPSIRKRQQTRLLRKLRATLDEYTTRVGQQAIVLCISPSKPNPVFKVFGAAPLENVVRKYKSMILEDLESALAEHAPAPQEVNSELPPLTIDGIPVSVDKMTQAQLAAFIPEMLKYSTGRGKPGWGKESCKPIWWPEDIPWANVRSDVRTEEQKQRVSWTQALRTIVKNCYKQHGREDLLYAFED

NRF1 R244A = molecular target: T6, NRF1 R244A (human, UniProt Q16656 54-284, R244A); assay: ITC; mean of repeats 6.45, 8.62, 4.92; ITC: 20 mM Hepes pH 7.0, 150 mM NaCl, 25 C; protein 20-30 uM, dsDNA 500-600 uM; conditions: protein: recombinant; tags: N-terminal His6 removed by TEV; chain copies: 2; blunt; self-complementary
T6 sequence: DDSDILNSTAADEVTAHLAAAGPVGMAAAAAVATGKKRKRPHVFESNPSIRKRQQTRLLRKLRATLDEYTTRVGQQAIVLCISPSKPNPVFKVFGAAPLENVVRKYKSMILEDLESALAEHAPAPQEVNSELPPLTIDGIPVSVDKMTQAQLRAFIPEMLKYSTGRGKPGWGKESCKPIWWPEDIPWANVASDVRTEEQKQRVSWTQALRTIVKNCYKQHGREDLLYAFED

NRF1 T109A = molecular target: T7, NRF1 T109A (human, UniProt Q16656 54-284, T109A); assay: ITC; mean of repeats 2.80, 2.36, 1.72; ITC: 20 mM Hepes pH 7.0, 150 mM NaCl, 25 C; protein 20-30 uM, dsDNA 500-600 uM; conditions: protein: recombinant; tags: N-terminal His6 removed by TEV; chain copies: 2; blunt; self-complementary
T7 sequence: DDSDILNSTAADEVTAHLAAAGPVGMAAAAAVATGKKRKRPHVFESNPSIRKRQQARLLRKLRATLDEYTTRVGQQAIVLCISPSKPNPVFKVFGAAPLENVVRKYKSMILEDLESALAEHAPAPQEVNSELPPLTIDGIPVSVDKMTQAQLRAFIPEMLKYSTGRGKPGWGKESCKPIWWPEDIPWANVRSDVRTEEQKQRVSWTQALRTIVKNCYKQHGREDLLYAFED

NRF1 T109D = molecular target: T8, NRF1 T109D (human, UniProt Q16656 54-284, T109D); assay: ITC; mean of repeats 1.62, 1.87, 1.30; ITC: 20 mM Hepes pH 7.0, 150 mM NaCl, 25 C; protein 20-30 uM, dsDNA 500-600 uM; conditions: protein: recombinant; tags: N-terminal His6 removed by TEV; chain copies: 2; blunt; self-complementary
T8 sequence: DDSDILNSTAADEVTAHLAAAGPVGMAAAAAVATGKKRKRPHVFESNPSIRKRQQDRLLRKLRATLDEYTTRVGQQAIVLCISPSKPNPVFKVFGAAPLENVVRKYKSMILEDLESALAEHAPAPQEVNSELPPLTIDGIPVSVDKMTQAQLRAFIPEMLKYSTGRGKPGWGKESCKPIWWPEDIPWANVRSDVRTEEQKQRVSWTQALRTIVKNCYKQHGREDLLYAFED

B1: 20 bp DNA (dsDNA)
DNA 1: GCGATGCGCATGCGCATCGC
DNA 2: GCGATGCGCATGCGCATCGC
Kd (NRF1 DD-DBD [1]): ~300 nM

B2: 16 bp DNA (dsDNA)
DNA 1: GGTGCGCATGCGCACC
DNA 2: GGTGCGCATGCGCACC
binding result (NRF1 DBD [2]): binds

B3: GCGa (dsDNA)
DNA 1: ATGCGAATGCGCAT
DNA 2: ATGCGCATTCGCAT
Kd (NRF1 DD-DBD [3]): 3750 ± 690 nM

B4: aCGC (dsDNA)
DNA 1: ATACGCATGCGCAT
DNA 2: ATGCGCATGCGTAT
Kd (NRF1 DD-DBD [3]): 1270 ± 270 nM

B5: ACACTCT spacer (dsDNA)
DNA 1: ATGCGCACACTCTGCGCAT
DNA 2: ATGCGCAGAGTGTGCGCAT
Kd (NRF1 DD-DBD [3]): 4310 ± 280 nM

B6: NRF1 (aa 98–177) (domain or fragment, human, UniProt Q16656 98-177, looked up)
chain: ESNPSIRKRQQTRLLRKLRATLDEYTTRVGQQAIVLCISPSKPNPVFKVFGAAPLENVVRKYKSMILEDLESALAEHAPA
notes: pET28-MHL vector; His6 tag removed with TEV protease; source: E. coli BL21 (DE3), purified (Ni-NTA, anion exchange, gel filtration); not shown: His6, N-terminal, cleaved
stoichiometry N [4]: 2

B7: GCtC (dsDNA)
DNA 1: ATGCTCATGCGCAT
DNA 2: ATGCGCATGAGCAT
Kd (NRF1 DD-DBD [3]): 2230 ± 170 nM

B8: A spacer (dsDNA)
DNA 1: ATGCGCAGCGCAT
DNA 2: ATGCGCTGCGCAT
Kd (NRF1 DD-DBD [3]): 1620 ± 110 nM

B9: tCGC (dsDNA)
DNA 1: ATTCGCATGCGCAT
DNA 2: ATGCGCATGCGAAT
Kd (NRF1 DD-DBD [3]): 2110 ± 800 nM

B10: CG central (dsDNA)
DNA 1: ATGCGCCGGCGCAT
DNA 2: ATGCGCCGGCGCAT
Kd (NRF1 DD-DBD [3]; self-complementary): 1090 ± 60 nM

B11: GCaC/GtGC (dsDNA)
DNA 1: ATGCACATGTGCAT
DNA 2: ATGCACATGTGCAT
Kd (NRF1 DD-DBD [3]; self-complementary): 4430 ± 550 nM

B12: NRF1 (aa 54–177) (domain or fragment, human, UniProt Q16656 54-177, looked up)
chain: DDSDILNSTAADEVTAHLAAAGPVGMAAAAAVATGKKRKRPHVFESNPSIRKRQQTRLLRKLRATLDEYTTRVGQQAIVLCISPSKPNPVFKVFGAAPLENVVRKYKSMILEDLESALAEHAPA
notes: pET28-MHL vector; His6 tag removed with TEV protease; also called NRF1 DD; dimerization domain; source: E. coli BL21 (DE3), purified (Ni-NTA, anion exchange, gel filtration); not shown: His6, N-terminal, cleaved
stoichiometry N [4]: 2

B13: GCaC (dsDNA)
DNA 1: ATGCACATGCGCAT
DNA 2: ATGCGCATGTGCAT
Kd (NRF1 DD-DBD [3]): 660 ± 40 nM

B14: GtGC (dsDNA)
DNA 1: ATGTGCATGCGCAT
DNA 2: ATGCGCATGCACAT
Kd (NRF1 DD-DBD [3]): 1810 ± 250 nM

B15: GCGt/aCGC (dsDNA)
DNA 1: ATGCGTATACGCAT
DNA 2: ATGCGTATACGCAT
Kd (NRF1 DD-DBD [3]; self-complementary): 1310 ± 180 nM

B16: GaGC (dsDNA)
DNA 1: ATGAGCATGCGCAT
DNA 2: ATGCGCATGCTCAT
Kd (NRF1 DD-DBD [3]): 1380 ± 150 nM

B17: ACACT spacer (dsDNA)
DNA 1: ATGCGCACACTGCGCAT
DNA 2: ATGCGCAGTGTGCGCAT
Kd (NRF1 DD-DBD [3]): 2320 ± 480 nM

B18: atta/GCGC (dsDNA)
DNA 1: ATATTAATGCGCAT
DNA 2: ATGCGCATTAATAT
Kd (NRF1 DD-DBD [3]): 3760 ± 230 nM

B19: ACT spacer (dsDNA)
DNA 1: ATGCGCACTGCGCAT
DNA 2: ATGCGCAGTGCGCAT
Kd (NRF1 DD-DBD [3]): 1960 ± 270 nM

B20: no spacer (dsDNA)
DNA 1: ATGCGCGCGCAT
DNA 2: ATGCGCGCGCAT
Kd (NRF1 DD-DBD [3]; self-complementary): 570 ± 20 nM

B21: ACACTT spacer (dsDNA)
DNA 1: ATGCGCACACTTGCGCAT
DNA 2: ATGCGCAAGTGTGCGCAT
Kd (NRF1 DD-DBD [3]): 4360 ± 290 nM

B22: ACGT spacer (dsDNA)
DNA 1: ATGCGCACGTGCGCAT
DNA 2: ATGCGCACGTGCGCAT
Kd (NRF1 DD-DBD [3]; self-complementary): 910 ± 40 nM

B23: NRF1 (aa 54–284) (domain or fragment, human, UniProt Q16656 54-284, looked up)
chain: DDSDILNSTAADEVTAHLAAAGPVGMAAAAAVATGKKRKRPHVFESNPSIRKRQQTRLLRKLRATLDEYTTRVGQQAIVLCISPSKPNPVFKVFGAAPLENVVRKYKSMILEDLESALAEHAPAPQEVNSELPPLTIDGIPVSVDKMTQAQLRAFIPEMLKYSTGRGKPGWGKESCKPIWWPEDIPWANVRSDVRTEEQKQRVSWTQALRTIVKNCYKQHGREDLLYAFED
notes: pET28-MHL vector; His6 tag removed with TEV protease; also called Nuclear respiratory factor 1; NRF1 dimer; source: E. coli BL21 (DE3), purified (Ni-NTA, anion exchange, gel filtration); not shown: His6, N-terminal, cleaved
stoichiometry N [4]: 2

B24: GCGt (dsDNA)
DNA 1: ATGCGTATGCGCAT
DNA 2: ATGCGCATACGCAT
Kd (NRF1 DD-DBD [3]): 1250 ± 110 nM

B25: 14 bp AT central (WT) (dsDNA)
DNA 1: ATGCGCATGCGCAT
DNA 2: ATGCGCATGCGCAT
Kd (NRF1 DD): ~1800 nM
Kd (NRF1 DBD [5]): ~1400 nM
Kd (NRF1 DD-DBD [3]; self-complementary): 310 ± 50 nM
Kd (NRF1 N242A): ~1730 nM
Kd (NRF1 R206A): ~5200 nM
Kd (NRF1 R244A): ~6660 nM
Kd (NRF1 T109A): ~2290 nM
Kd (NRF1 T109D): ~1600 nM
